Measured values reported in PMC3599193, “Expression of a secretory α-glucosidase II from Apis cerana indica in Pichia pastoris and its characterization” (BMC Biotechnology, 2013).

How the values were obtained:
purified protein = substrate: O=[N+]([O-])c1ccc(O[C@H]2O[C@H](CO)[C@@H](O)[C@H](O)[C@H]2O)cc1; assay: purified protein; details: 0-25 mM substrate, sodium phosphate pH 5.5, 37°C (assay 'as above'), partially purified enzyme
[1] = substrate: OC[C@H]1O[C@@](CO)(O[C@H]2O[C@H](CO)[C@@H](O)[C@H](O)[C@H]2O)[C@@H](O)[C@@H]1O; assay: glucose release, glucose oxidase-peroxidase, Lineweaver-Burk; assay type: biochemical, Apis cerana; details: 0-20 mM substrate, sodium phosphate pH 5.5, 37°C (assay 'as above'), partially purified enzyme
Description: glucose release, glucose oxidase-peroxidase, Lineweaver-Burk on rAciHBGase II-(His)6

B1: rAciHBGase II-(His)6 (Apis cerana indica) (protein)
chain: FRATITVPCLLLVASLVNSVDVNWYKNALVYQIYPRSFQDSNGDGIGDLNGITARIDHIADIGAQALWLSPIYKSPQVDFGYDISNFTDVDPDYGTLADFDRLVRRAKTLGLKVILDFVPNHSSHEHPWFKKSVQRIKPYDEYYVWRDARIVNGTRQPPNNWLSVFWGSAWEWNDVRQQYYLHQFAAGQPDLNYRSAALDQEMKNVLTFWMDRGVDGFRIDAINHMFEDKRLLDEPSANRTDLSKDDYESLVHVYTRDQNETYDVSRSWRNLMDEHSNRTNSDPRMILTEAYTEFNLTVKYYKSGSTVPFNFMFITDLNNQSTASDFKQLIDRWVGNVPNGSVTNWVSGNHDNHRVASRFGRQRADEILMLTLTLPGIGVVYNGDEIGMEDRPFTYAETVDPAGCNAGPAKYYLKSRDPERTPYQWDNSTSAGFSDRNKTWLPVNDNSRSLNLAAQKKEYYSHYVAFKSMSYLKKQPVIANGSLEVDVIDGKVLSVKRKLGNDTVIVMVNFSKNPVTINMSTLHPPADLVVYANNVIGSGLSHGNWIYPTSMTIPGSNSAIFTNYKLYWRYWQGVDGL
notes: full-length cDNA (1,740 bp, 579 residues) in pPICZalphaA (EcoRI/KpnI), secreted from Pichia pastoris GS115, C-terminal His6 kept, partially purified by HisTrap, ~73 kDa
Km (purified protein): 4.20 ± 0.18 mM
kcat (purified protein): 1.89 ± 0.11 s⁻¹
Km [1]: 15.3 ± 0.87 mM
kcat [1]: 845.0 ± 0.00 s⁻¹
